Laboratory results as given in patent publication US9610323B2, “Model systems and treatment regimes for treatment of neurological disease” (NoNO Inc., priority 2009, dated 2017).
Like-named read-outs stand apart in the source and are kept apart here. Square brackets hold non-standard residues; d marks the D form. Ends that are not written are not given here.

Columns and labels:
[1] = target: binding of NMDAR 2B to PSD95 (Homo sapiens, UniProt P78352); settings: reported by Bach; cited from earlier work
Chain of binding of NMDAR 2B to PSD95 (P78352 61-249 limits assumed): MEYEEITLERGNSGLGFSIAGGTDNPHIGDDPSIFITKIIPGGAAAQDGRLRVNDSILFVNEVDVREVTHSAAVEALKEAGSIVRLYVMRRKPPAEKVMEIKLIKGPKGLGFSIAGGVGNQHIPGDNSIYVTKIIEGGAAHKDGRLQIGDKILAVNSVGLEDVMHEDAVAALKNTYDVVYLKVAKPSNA

embolic stroke = assay: Primate model of ischemic stroke (twenty 100-micron polystyrene spheres into an intracerebral vessel; MRI brain analysis); type: in vivo, macaques; settings: 2.6 mg/kg one hour after spheres
Procedure: The following example was performed on ten macaques divided into five test subjects and five controls. Each animal was put through the protocol twice with test animals in the first round serving as controls in the second round and vice versa.
Twenty 100-micron polystyrene spheres were delivered into an intracerebral vessel of each animal to induce embolic stroke. One hour after introducing the sphere, the animals were treated with Tat-NR2B9c (2.6 mg/kg) or vehicle control. The animals were then subject to MRI brain analysis and neurological examination at 4 hr, 24 hr and 14 days after introduction of the spheres.
After 14-28 days, the procedure was repeated with test animals serving as controls and vice versa.

[2] = system: permanent pial vessel occlusion (P3VO) stroke; assay: Rat model of stroke, permanent pial vessel occlusion of 3 terminal branches of the Middle Cerebral Artery (P3VO); type: in vivo, Sprague Dawley rats; settings: 7.6 mg/kg i.v. after vessel occlusion, 5 min infusion
Procedure: Different infusion times were also compared for efficacy in a rat model of stroke in which adult Sprague Dawley rats (10-12 weeks old) (males˜300 g, females˜250 g) were fasted for 12-18 hours before being subjected to permanent pial vessel occlusion of 3 terminal branches of the Middle Cerebral Artery over the Whisker Barrel Cortex (P3VO). The protocol for analysis of this rat model has been described in WO/2008/008348. Tat-NR2B9c was administered at 7.6 mg/kg i.v. after vessel occlusion in comparison with vehicle. Two periods of infusion were compared, 5 min and 1 hour.

[3] = Procedure: For use such a composition is thawed and diluted into a larger volume of normal saline for infusion into a blood vessel. Another composition can be made by lyophilizing the chimeric agent Tat-NR2B9c at a concentration of 1-50 mg/ml in normal saline in the presence or absence of excipients. Such excipients can include those to increase stability or inhibit bacterial, viral or other pathogen growth that could degrade the drug. […] The lyophilized composition can be reconstituted in normal saline.
[4] = 50 mg/kg
Procedure: Tat-NR2B9c was administered to rats at 50 mg/kg and infusion times of 3 min or 60 min.

[5] = for subjects with histamine levels greater than 10 nmol/L: 3.75 mg/kg dose group; for maximum histamine level / average histamine level: 3.75 mg/kg; for average histamine level: subjects with levels greater than 10 nmol/L
Procedure: We carried out a Safety, Tolerability and Pharmacokinetic Study of Tat-NR2B9c in humans. Subjects were either normal, healthy, non-smoking males or post-menopausal or surgically sterile female subjects with a minimum age of 18 years. The subjects were either administered Tat-NR2B9c, Lot #: 124-134-001B, or were given placebo (Phosphate Buffered Saline), Lot #: 124-134-001A, administered as an intravenous infusion (10±1 minutes). Four subjects were dosed in each of Cohorts 1 to 3, and 10 subjects were dosed in each of Cohorts 4 to 8.
During the study period, 11 blood samples were collected for pharmacokinetic analysis from each subject at the following timepoints: 0.00 (pre-dose), 0.08 (5 minutes), 0.17 to 0.25 (10 to 15 minutes, precisely at the end of each individual drug infusion), 0.33 (20 minutes), 0.50, 0.75, 1.00, 2.00, 6.00, 12.00, and 24.00 hours post-dose. In addition, 8 blood samples were collected for histamine analysis from each subject at the following timepoints: 0.00 (pre-dose), and at 0.08 (5 minutes), 0.17 (10 minutes), 0.25, 0.50, 1.00, 2.00, and 24.00 hours post-dose.
The safety assessment was performed on all subjects who received at least 1 dose during the course of the study. The incidents of all adverse events (AEs) were tabulated by treatment and subject number. Absolute values for vital signs, electrocardiogram (ECG) parameters, laboratory parameters and physical examinations were also documented and values outside the normal range were flagged. Shifts from baseline values were tabulated. AEs were documented using investigator and Medical Dictionary for Regulatory Activities (MedDRA) terms.

[6] = high dose groups, rats
[7] = high dose groups, dogs
[8] = high dose groups, primates
cerebral ischemia = settings: reported in WO 2008/014917; cited from earlier work
[9] = cortex compared with whole brain

Substance: IESDV (synthetic pentamer peptide from the C-terminus of NMDAR 2B) [pentamer peptide from the C-terminus of NMDAR 2B, reported by Bach]
- inhibiting binding of NMDAR 2B to PSD95 [1]: effective

Substance: YGRKKRRQRRRKLSSIESDV [Tat-NR2B9c]
- reduction of number of infarctions in the cortex (embolic stroke; [9]): even greater
- reduction of volumes of infarctions in the cortex (embolic stroke; [9]): even greater
- number of MRI-visible infarctions in the whole brain (embolic stroke; vs vehicle control): significantly reduced
- volume of MRI-visible infarctions in the whole brain (embolic stroke; vs vehicle control): significantly reduced
- infarction size 24 hr post treatment relative to saline placebo [2]: significantly reduced
- stability of lyophilized composition ([3]; lyophilized from 1-50 mg/ml in normal saline, −20° C. or room temperature): stable
- stability (degradation or aggregation of the peptide) when stored frozen ([3]; normal saline, 10-30 mg/ml, stored frozen, two or more years): stable
- decrease in blood pressure ([4]; infusion over 3 min): about 50%
- period of recovery of blood pressure ([4]; infusion over 3 min): 90 min
- recovery of blood pressure ([4]; infusion over an hour (60 min)): recovered over a period of hour
- reduction in blood pressure ([4]; infusion over an hour (60 min)): only a slight reduction
- subjects with an elevated histamine level ([5]; 0.375 mg/kg dose group, 1 timepoint, 2.00 hours post dose): 1 subject
- subjects with histamine levels greater than 10 nmol/L ([5]; 10 minutes after start of administration): 7 of the 8
- subjects with histamine levels greater than 10 nmol/L ([5]; 10 minutes after start of administration, listed as NA 1): Seven of 8
- subjects with histamine levels greater than 10 nmol/L ([5]; 15 minutes after start of administration): 3 subjects
- maximum histamine level ([5]; 10 minutes after start): 39.8 nmol/L
- average histamine level ([5]; 10 minutes after start): 24.3 nmol/L
- maximum histamine level ([5]; 15 minutes after start): 20.3 nmol/L
- average histamine level ([5]; 15 minutes after start): 15.3 nmol/L
- AE dry mouth, incidence ([5]; 9/46 subjects receiving drug): 19.6%
- AE flushing, incidence ([5]; 10/46 subjects receiving drug): 21.7%
- AE pruritis, incidence ([5]; 12/46 subjects receiving drug): 26.1%
- AE feeling hot, incidence ([5]; 13/46 subjects receiving drug): 28.3%
- active treatment subjects who experienced at least 1 AE ([5]; 34 of 46 active treatment subjects, all doses): 73.9%
- time for abnormal histamine results to return to the normal range ([5]; after drug administration): ≤ 24.00 h
- Serious Adverse Events (SAEs) ([5]; all dose groups): No Serious Adverse Events (SAEs) were reported
- AEs at doses ≧2.60 mg/kg (decreased blood pressure, paraesthesia, hypoaesthesia, erythema, rash, pruritus, dry mouth, nausea, feeling hot, flushing) ([5]; doses ≧2.60 mg/kg): several AEs were frequently reported
- abnormal levels of histamine ([5]; treatment groups other than 3.75 mg/kg): no treatment group had significant abnormal levels of histamine
- histamine levels [6]: elevated histamine levels were observed
- histamine levels [7]: elevated histamine levels were observed
- histamine levels [8]: elevated histamine levels were observed

Substance: vdseisslk-rrrqrrkkrgyin ([dV][dD][dS][dE][dI][dS][dS][dL][dK][dR][dR][dR][dQ][dR][dR][dK][dK][dR]G[dY][dI][dN]; also: retro-inverso) [retro-inverso analog of Tat-NR2B9c, retro-inverso analog of Tat-NR2B9c described in WO 2008/014917]
- inhibiting cerebral ischemia (cerebral ischemia): effective
